A short description of the data set: soluble on expression in E. coli; label from the status in PepcDB or PDB records.
Turning to “MNNFVKLGLTTGVVLSAIIPYGGVHAATEDLKVETKEDTFRTGNLTAPSQKSAENVVKDALKGKTEQALSSKQVNTESKVNYNVTQSRKSYDGTTLVRLQQTYEGRDVYGYQLTAHINDDGVLTSISGDSAQDLQQQEDLKQPIILSEEDAKKQLFKIYGDNLTFVEEPEIKQVVYVDENTNKATNAYQITFSASTPEYVSGTVLIDAFVGDLLKELVQKLGIQVDSSIVQSATANKSQDPSKLTGTGKDDLGMNRTFGITQRSDGTYTLADYSRGKGIETYTANYKDYNNYRRNVWGYLDDLVTSNSTNFTDPKAVSAHYLATKVYDFYKEKYSRNSFDNNGQKVISVVHGWNTNGKNIGNPKQWFNAFSNGAMLVYGDPIVRAFDVAGHEFTHAVTRNESGLEYAGEAGAINEALSDILGVAVEKYANNGKFNWTMGEQSGRIFRDMKNPSSISSRYPEDYRHYNNLPIDADHDYGGVHTNSSIINKVAYLIASGGNHNGVNVQGIGEDKMFDIFYYANTDELNMTSDFKELKEACIRVAMNLYGKDSLEVQAVQQAFKAAYI”, the “soluble on expression in E. coli” value was “not soluble”.
Turning to “MNNLYRDLAPVTEAAWAEIELEAARTFKRHIAGRRVVDVSDPGGPVTAAVSTGRLIDVKAPTNGVIAHLRASKPLVRLRVPFTLSRNEIDDVERGSKDSDWEPVKEAAKKLAFVEDRTIFEGYSAASIEGIRSASSNPALTLPEDPREIPDVISQALSELRLAGVDGPYSVLLSADVYTKVSETSDHGYPIREHLNRLVDGDIIWAPAIDGAFVLTTRGGDFDLQLGTDVAIGYASHDTDTVRLYLQETLTFLCYTAEASVALSH”, the “soluble on expression in E. coli” value is on record as “not soluble”.
As to “MNNSINHKFHHISRAEYQELLAVSRGDAVADYIIDNVSILDLINGGEISGPIVIKGRYIAGVGAEYTDAPALQRIDAHGATAVPGFIDAHLHIESSMMTPVTFETATLPRGLTTVICDPHEIVNVMGEAGFAWFARCAEQARQNQYLQVSSCVPALEGCDVNGASFTLEQMLAWRDHPQVTGLAEMMDYPGVISGQNALLDKLDAFRHLTLDGHCPGLGGKELNAYIAAGIENCHESYQLEEGRRKLQLGMSLMIREGSAARNLNALAPLINEFNSPQCMLCTDDRNPWEIAHEGHIDALIRRLIEQHNVPLHVAYRVASWSTARHFGLNHLGLLAPGKQADIVLLSDARKVTVQQVLVKGEPIDAQTLQAEESAKLAQSAPPYGNTIARQPVSASDFALQFTPGKRYRVIDVIHNELITHSHSSVYSENGFERNDVCFIAVLERYGQRLAPACGLLGGFGLNEGALAATVSHDSHNIVVIGRSAEEMALAVNQVIQDGGGLCVVRNGQVQSHLPLPIAGLMSTDTAQSLAEQIDALKAAARECGPLPDEPFIQMAFLSLPVIPALKLTSQGLFDGEKFAFTTLEVTE”, the “soluble on expression in E. coli” value was “not soluble”.
As to “MNNTEPWKKYVPETVSLYHVDYRENLNEREDLQEQCIRNNNMERLYETVMECYAEQEAESLLKILGEIKEKMAEEKRQEEFEEHREEITDLILSRSDTDPAEELIKNSAAVNMYYSPGEKIEERIGKASKTMSCYKVRRALKLKKGQFDTLIEELVDNATYGGELRIYFNAGFNELVTNDNGKDFRTIRFHRDVIVAVANSFNGSGYHISLPLDITFPFVRDRLFVDSQVRYSYATEVCGMCRDWCDSTSWETEYKTVRNTSRNRQKEKTLSTN”, the “soluble on expression in E. coli” value is on record as “not soluble”.
For “MNPDLRKERASATFNPELITHILDGSPENTRRRREIENLILNDPDFQHEDYNFLTRSQRYEVAVKKSATMVKKMREYGISDPEEIMWFKNSVHRGHPEPLDLHLGMFLPTLLHQATAEQQERFFMPAWNLEITGTYAQTEMGHGTHLRGLETTATYDPKTQEFILNSPTVTSIKWWPGGLGKTSNHAIVLAQLITQGECYGLHAFVVPIREIGTHKPLPGITVGDIGPKFGYEEMDNGYLKMDNYRIPRENMLMKYAQVKPDGTYVKPLSNKLTYGTMVFVRSFLVGNAAQSLSKACTIAIRYSAVRRQSEIKQSEPEPQILDFQTQQYKLFPLLATAYAFHFVGRYMKETYLRINESIGQGDLSELPELHALTAGLKAFTTWTANAGIEECRMACGGHGYSHSSGIPNIYVTFTPACTFEGENTVMMLQTARFLMKIYDQVRSGKLVGGMVSYLNDLPSQRIQPQQVAVWPTMVDINSLEGLTEAYKLRAARLVEIAAKNLQTHVSHRKSKEVAWNLTSVDLVRASEAHCHYVVVKVFSDKLPKIQDKAVQAVLRNLCLLYSLYGISQKGGDFLEGSIITGAQLSQVNARILELLTLIRPNAVALVDAFDFKDMTLGSVLGRYDGNVYENLFEWAKKSPLNKTEVHESYHKHLKPLQSKL”, the “soluble on expression in E. coli” value was “soluble”.
In the case of “MNPERQETISPKNVPFQPVPTPNQQSLQSRMLESNQAVPDAFQKVAAWNHYNAVATPPIGVPQTARPPSNQSPHPNPPGYPYQSHQQQFHPLAIAFQQPFGLPQQVIYPPPPPGFTPHRVQVSPVGLLGPPGFFPQFAGSTTSQGNPSEVSVRTKSAEGTTGPIAPSITTKPTSTIQVAPPRDPVAPTTSSSGITKKPENGEFSLVKTISGHTKSVSVIKFSYCGKYLGTGSADKQIKVWNTVDMTYLQTLASHQLGINDFSWSSNSQFIASASDDTTVKIFDVISGACLRTMRGHTNYVFCCSFNPQSSLIASAGFDETVRVWDFKTGLCVKCIPAHSDPITSISYNHDGNTMATSSYDGCIRVWDAASGSCLKTLVDTDHAPVTFVCFSPNGKYLLSAQLDSSLKLWDPKKAKPLKYYNGHKNKKYCLFANMSVPLGKHIISGSEDGRILVWSIQTKQIVQILEGHTTPVLATDSHPTLNIIASGGLEPDNVIRIWRRN” it was “not soluble”; in that of “MNPLKKIKDWIAEGKAGWHLAGGRSSLKQGKYKEALKEFRKALKARPNNPEILHYNAITLLKLKRPEKALECYEKILKNNPKLAEAWNNKGLVLKELGRYDEALECYEKALKINPKYAGAWNNKALVLKELGRYDEALECYEKALQINPKLADAWYNKGSVLIYLKKYKKALKCFEKAIELNPKNYRAWGTKGITLHNLKIYEEALKCYDKVLQLNPQDDKAWNNKGLVFNELGRYDESLECYEKALQINPKLAEAWNNKGVVLSELGRYEEALECYEKALEIDPEDDKTWNNKGLVLEELGKYKDALECFQKALEINPEFADAWKWKGIILEDLKKPEESLKCYKKALKLNPPKQNTMVHARKNTTKTRQTQRSTKML”, “not soluble”; in that of “MNPLLTDSRRQALRSASHWYAVLSGERVSPQQEARWQQWYEQDQDNQWAWQQVENLRNQLGGVPGDVASRALHDTRLTRRHVMKGLLLLLGAGGGWQLWQSETGEGLRADYRTAKGTVSRQQLEDGSLLTLNTQSAADVRFDAHQRTVRLWYGEIAITTAKDALQRPFRVLTRQGQLTALGTEFTVRQQDNFTQLDVQQHAVEVLLASAPAQKRIVNAGESLQFSASEFGAVKPLDDESTSWTKDILSFSDKPLGEVIATLTRYRNGVLRCDPAVAGLRLSGTFPLKNTDAILNVIAQTLPVKIQSITRYWINISPL”, “soluble”.
Consider “MNPTFLEFIGANQRSSCGYCKNDRGERTPARSAKSGAWAHSMTVNDYSGLLDVGWRRSGRYLYKPDNRVTCCPQYTIRLDVTKFKMSRSQKRAMRQMNEFLATGKRPVCGIKEEDAPVEMNLKGSGSQSEQSKKNLKSHEVSTKKMKDADRPVLTKKEIRNKKFEEKCRQKNLDPDVVRTERRQKDAARQRTIQSYIDEARPDWKHKLEVKLVSLGGDEFGTRDNESFELYKNYQHTIHKDEDCRLAGFRRFLCDSPLKKEQRGGIELGSFHLWFLLDDKLIAVCVVDILPKCFSAKYMYYNPEYSFLSLGTYTALREIEQTQRLHAIYSNLKYYYMGYYIHSCPKMRYKAKFRPSDLLCDQSFRWVDFNSCRDLLDGSTCSNGFSEFCPGAPRPASPVVDTLLVFSNGSITTLSDALTEIPEAAENEQFLANVRDLAHLVGPDLSRVVYYFNELNS”, for which the “soluble on expression in E. coli” value is listed as “not soluble”.
Take “MNPVHILAKKGEVAERVLVVGDPGRARLLSTLLQNPKLTNENRGFLVYTGKYNGETVSIATHGIGGPSIAIVLEELAMLGANVFIRYGTTGALVPYINLGEYIIVTGASYNQGGLFYQYLRDNACVASTPDFELTNKLVTSFSKRNLKYYVGNVFSSDAFYAEDEEFVKKWSSRGNIAVEMECATLFTLSKVKGWKSATVLVVSDNLAKGGIWITKEELEKSVMDGAKAVLDTLTS”: the “soluble on expression in E. coli” value was “soluble”.
Regarding “MNQPSYTSGRQDVALLATTVGDAFDATVARHAEREALVVRHQRLRYSWRQLAERVDAYARAFIALGLRPGERLGIWAPNCAEWCITQFASAKVGAVLVNINPAYRSSELEYALKQSGCSWLICADAFKTSDYHAMLGDLLPELARARPGELASERLPELRGVISLAERAPAGFLHWQGLPGLAAAVGAEELRQRQASLQFDEPINIQYTSGTTGFPKGATLSHYNILNNGYMVGESLGLGAEDRLVIPVPLYHCFGMVMGNLGCVTHGSTMIYPAPSFDAEATLLAVAEERATALYGVPTMFIAELDHPRRREFDLSSLRTGIMAGATCPIEVMRRVIGDMHMAEVQIAYGMTETSPVSLQTGPDDGLELRVTTVGRTQPRLESKIVDQTGRVVPRGEIGELCTRGYSVMLGYWNDPQATAEAIDPARWMHTGDLAVMDDDGYVRIVGRSKDMIIRGGENIYPRELEEFFFTHPAVADVQVIGIPDERYGEEIVAWIKLHPGHHADDEQLRAFCKARIAHFKIPRHFKFVDEFPMTVTGKIQKFRMREISIEEIRLLALRQGR”, the “soluble on expression in E. coli” value is on record as “not soluble”.
Turning to “MNQRKLDHEVKTLQVQAAQFAKQTGQWIGMVENFNQALKEIGDVENWARSIELDMRTIATALEYVYKGQLQSAPS”, the “soluble on expression in E. coli” value is given as “soluble”.
In the case of “MNQYSSFSPSSPSSSSRPSGGGGQSSHQTTPKSSGNPRQQQAQPRHRQRKAQSSSPASLAAFASSSVCSSPSARNVPLPPVEWLNQLQVPGQLENSSRPSSSISMTSSASSSTSSLSSSDAPMITMTPRRAAQKEMKPKTDVLGVRVCPLQLIAAIASA”, the “soluble on expression in E. coli” value is recorded as “not soluble”.
For “MNRFLKHWRLSGRCEAFHGQIISYADDFVILSRGHAEDALTWTKAVMTKLGLTLNETKTSVKNARLESFDFLGYTLGPRHFRNGGRWYLGAAPSKKSVLRIKRKVSELLTPGNKGAWPEVQARLNRLLRGWSAYFSYGSLATAHQAVDRHVFDRVLAFLRRRHKTPGRGVRRFSDQIYGNPGVLVLNRVRKVSPTCALLEHHHHHH”, the “soluble on expression in E. coli” value is given as “not soluble”.
On to “MNRIIDMRCRPPLPEFREYFDIPRITWHGARTGAKQVSRAFVEGSMDLFFEEMDQAGIEIAVVQGRNSPAVFMGKQFNAAFIPNERLAQIQDQYAGRFVCFAGIDVSNTAHNAVEETVRSIKSLGLKGIFIEPGRQIQSTPDDERIFPVYEKCIELDIPVNLMSGPYAGADIGVSDPLYVDRLCTRYPELKIILGHGGYPYVQQILGVAFKHTNLFVSPDMYVFAPGGQAYIDAANGALRDQMVYGSAYPLRPVTQTVSDTLGLGLSADSERAYLELNARKLLNIAAALEHHHHHH”, for which the “soluble on expression in E. coli” value is “not soluble”.
“MNRLPVDDVIPDLLTALEQRNAAVLQAPPGAGKTTRVPLALLDAPWLNGKRIIMLEPRRLAATNAARWMARSLGEEAGATVGYAIRFDRRVSARTRVEVVTEGILTRRLQSDPLLEGVGAVIFDEFHERSIHSDLALALCRDVQAGLREDLRIIVMSA”: the “soluble on expression in E. coli” value is on record as “not soluble”.
In the case of “MNRQIVRSALFVPATRPERIPKALASGADRVIVDLEDAVEEGLKVEARANLRRFLVDTPEARVLVRINAAEHPGHADDLALCRDHAGVIGLLLPKVESAAQVRHAAVASGKPVWPIVESARGLAALGEIAAAAGVERLSFGSLDLALDLDLNSGSNAAEQILGHARYALLLQTRLAGLAPPLDGVYPAIQNRAGLVEAVRFARDMGFGGLLCIHPSQVEPIHQTLMPSPAELEWARRVAEAGASGAGVFVVDGEMVDAPVLGRARRLLERAGEGG”, the “soluble on expression in E. coli” value is “not soluble”.
